According to article PMC11805834 (Applied Microbiology and Biotechnology, 2025):

Target: T1, mouse CD80-Fc fusion protein (mouse, UniProt Q00609 38-246)
T1 sequence: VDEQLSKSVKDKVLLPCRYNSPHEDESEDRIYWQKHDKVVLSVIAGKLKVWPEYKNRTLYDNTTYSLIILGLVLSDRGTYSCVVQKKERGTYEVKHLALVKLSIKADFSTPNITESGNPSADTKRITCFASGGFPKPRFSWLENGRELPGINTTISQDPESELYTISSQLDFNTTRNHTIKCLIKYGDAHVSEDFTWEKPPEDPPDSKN
Assay: SPR

B1: Mouse CD28 protein with His tag (receptor)
chain: NKILVKQSPLLVVDSNEVSLSCRYSYNLLAKEFRASLYKGVNSDVEVCVGNGNFTYQPQFRSNAEFNCDGDFDNETVTFRLWNLHVNHTDIYFCKIEFMYPPPYLDNERSNGTIIHIKEKHLCHTQSSPKL
  Kd: 2490 nM
